Values of other authors in publication PMC6470598.

Molecular target: CTLA-4 (Homo sapiens) (UniProt P16410)
UniProt P16410, sequence (P16410 36-161): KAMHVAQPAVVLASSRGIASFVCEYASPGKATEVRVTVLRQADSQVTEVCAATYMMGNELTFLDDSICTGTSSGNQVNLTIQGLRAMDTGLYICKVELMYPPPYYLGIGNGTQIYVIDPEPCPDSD

Question: Which Kd does the source give for tremelimumab here?
Answer: 5.9 nM
